Laboratory results as given in patent publication US20220348665A1.
Numbering of substitutions follows the chain as printed. One block for each binder: values may come before it.

Legend:
[1] = target: human IGF1R extracellular domain, recombinant, His tag at C-terminus (human) (UniProt P08069); experiment: SPR (Biacore T200), His-tagged human IGF1R ECD captured by anti-his antibody on CM4 chip, bivalent model
[2] = target: human IGF1R extracellular domain, recombinant, His tag at C-terminus (human) (UniProt P08069); experiment: ELISA on ECD of IGF1R, bispecific form
[3] = target: human IGF1R, endogenous, on the surface of breast cancer cell lines (MCF-7, JIMT-1, BT474) (human) (UniProt P08069); experiment: FACS on MCF-7 cells, antibody 10 ug/mL (2nd Ab only 2.86, not treated 1.88)
[4] = target: human IGF1R, endogenous, on the surface of breast cancer cell lines (MCF-7, JIMT-1, BT474) (human) (UniProt P08069); experiment: FACS on MCF-7 cells (2nd Ab only 2.92)

B1: F06 IgG (anti-IGF1R clone F06, full IgG1 form) (antibody, from a related filing, V domains shown)
VH: EVQLLESGGGLVQPGGSLRLSCAASGFTFSSYDMSWVRQAPGKGLEWVSAISYDNGNTYYADSVKGRFTISRDNSKNTLYLQMNSLRAEDTAVYYCAKGVLTTLMNWFDYWGQGTLVTVSS
VL: QSVLTQPPSASGTPGQRVTISCTGSSSNIGSNDVSWYQQLPGTAPKLLIYANSNRPSGVPDRFSGSKSGTSASLAISGLRSEDEADYYCGTWAGSLNGYVFGGGTKLTVL
Kd [1]: 478 nM

B3: C04 (1564 affinity variant) in bispecific antibody form, backbone not stated (bispecific antibody, not shown: small tags and cut ends)
scFv: QSVLTQPPSASGTPGQRVTISCTGSSSNIGSNDVSWYQQLPGTAPKLLIYANSNRPSGVSDRFSGSKSGTSASLAISGLRSEDEADYYCGAWEQWLNGYVFGCGTKLTVLGGGGSGGGGSGGGGSGGGGSEVQLLESGGGLVQPGGSLRLSCAASGFTFSSYDMSWVRQAPGKCLEWVSAISYDNGNTYYADSVKGRFTISRDNSKNTLYLQMNSLRAEDTAVYYCAKGVLTTLMNWFDYWGQGTLVTVSS
GEOmean [4]: 3.88

More lines, now with the values ahead:

EC50 [2]: 0.107 nM
GeoMean, Internalization at 37° C. [3]: 7.23
B2: Hu3A9-C04 (bispecific antibody form of 1564 affinity variant C04) (bispecific antibody, part only; not given: humanized 3A9 IgG carrier, linker, not shown: another chain or arm of the molecule; a dimerising Fc or GST; large carriers; small tags and cut ends)
scFv: B3 scFv

GeoMean, Internalization at 37° C. [3]: 19.8
B4: hu3A9x1564_F06 (bispecific antibody: humanized 3A9 IgG with F06 scFv) (bispecific antibody, part only; not given: humanized 3A9 IgG carrier, linker, not shown: another chain or arm of the molecule; a dimerising Fc or GST; large carriers; small tags and cut ends)
scFv: B3 scFv with A91T, E93A, Q94G, W95S
